Consider 30 molecules from patent US20220259288A1 (LA JOLLA INSTITUTE FOR ALLERGY AND IMMUNOLOGY, published 2022).

One test deals with T1, HLA-DP DPB1*02:01 (human).
T1 chain 1: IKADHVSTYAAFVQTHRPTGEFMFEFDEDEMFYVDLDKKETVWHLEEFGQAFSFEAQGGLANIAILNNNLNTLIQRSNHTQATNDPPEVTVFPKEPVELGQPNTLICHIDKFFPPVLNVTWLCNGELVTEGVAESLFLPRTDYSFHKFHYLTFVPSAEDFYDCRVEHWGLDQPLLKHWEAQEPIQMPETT
T1 chain 2: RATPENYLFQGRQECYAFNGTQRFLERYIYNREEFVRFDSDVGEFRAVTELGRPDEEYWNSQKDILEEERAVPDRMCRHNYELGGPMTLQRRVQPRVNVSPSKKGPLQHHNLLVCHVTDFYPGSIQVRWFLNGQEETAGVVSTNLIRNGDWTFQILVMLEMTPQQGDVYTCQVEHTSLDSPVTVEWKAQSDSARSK
The experiment in a line: competition assay.

For the next test, the target named is T2, HLA-DP DPB1*04:01 (human).
T2 chain 1: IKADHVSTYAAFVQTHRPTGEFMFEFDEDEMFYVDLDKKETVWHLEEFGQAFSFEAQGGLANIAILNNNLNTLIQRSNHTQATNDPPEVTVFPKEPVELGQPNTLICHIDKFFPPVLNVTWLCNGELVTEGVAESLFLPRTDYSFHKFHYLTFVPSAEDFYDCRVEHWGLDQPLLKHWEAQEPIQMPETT
T2 chain 2: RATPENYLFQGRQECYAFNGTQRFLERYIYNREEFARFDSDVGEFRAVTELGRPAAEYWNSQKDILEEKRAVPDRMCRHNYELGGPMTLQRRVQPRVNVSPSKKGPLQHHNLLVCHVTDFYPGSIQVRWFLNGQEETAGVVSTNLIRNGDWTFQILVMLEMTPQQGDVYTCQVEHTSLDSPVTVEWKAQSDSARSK
Briefly: competition assay.

The next test addresses T3, HLA-DRB3*01:01 (human).
T3 construct: MHC class II molecule; how it was prepared for the assay is not described
Briefly: HLA class II competition binding assay.

For a further test, the target named is T4, HLA-DP DPB1*14:01 (human).
T4 construct: its preparation is not described
The experiment in a line: competition assay.

The next test deals with T5, HLA-DP DPB1*05:01 (human).
T5 construct: its preparation is not described
The experiment in a line: competition assay.

Another test deals with T6, HLA-DQ DQB1*06:02 (human).
T6 construct: its preparation is not described
The experiment in a line: competition assay.

Another test concerns the target T7, HLA-DRB1*07:01 (human).
T7 construct: MHC class II molecule; how it was prepared for the assay is not described
Briefly: HLA class II competition binding assay.

The target in a further test is T8, HLA-DRB1*09:01 (human).
T8 construct: MHC class II molecule; how it was prepared for the assay is not described
Briefly: HLA class II competition binding assay.

In another test the target is T9, HLA-DRB5*01:01 (human).
T9 construct: MHC class II molecule; how it was prepared for the assay is not described
Briefly: HLA class II competition binding assay.

For the next test, the target named is T10, HLA-DRB1*03:01 (human).
T10 construct: MHC class II molecule; how it was prepared for the assay is not described
Briefly: HLA class II competition binding assay.

Another test addresses T11, HLA-DRB1*13:02 (human).
T11 construct: MHC class II molecule; how it was prepared for the assay is not described
The experiment in a line: HLA class II competition binding assay.

In another test the target is T12, HLA-DRB1*12:01 (human).
T12 construct: MHC class II molecule; how it was prepared for the assay is not described
The experiment in a line: HLA class II competition binding assay.

The target in another test is T13, HLA-DRB3*02:02 (human).
T13 construct: MHC class II molecule; how it was prepared for the assay is not described
Briefly: HLA class II competition binding assay.

Another test concerns the target T14, HLA-DRB1*04:01 (human).
T14 construct: MHC class II molecule; how it was prepared for the assay is not described
Briefly: HLA class II competition binding assay.

A further test deals with T15, HLA-DRB1*01:01 (human).
T15 construct: MHC class II molecule; how it was prepared for the assay is not described
Briefly: HLA class II competition binding assay.

A further test addresses T16, HLA-DRB1*04:05 (human).
T16 construct: MHC class II molecule; how it was prepared for the assay is not described
The experiment in a line: HLA class II competition binding assay.

A further test has as its target T17, HLA-DRB4*01:01 (human).
T17 construct: MHC class II molecule; how it was prepared for the assay is not described
The experiment in a line: HLA class II competition binding assay.

The next test concerns the target T18, HLA-DRB1*15:01 (human).
T18 construct: MHC class II molecule; how it was prepared for the assay is not described
Briefly: HLA class II competition binding assay.

B1: ApoB100 peptide 3563.0019 (peptide)
peptide: GKIDFLNNYALFLSP
Take B1: the concentration for half-maximal inhibition (IC50) (usually the midpoint of a concentration-inhibition curve) in the test with HLA-DP DPB1*02:01 turned out to be 456 nM.

B2: ApoB100 peptide 3563.0012 (peptide)
peptide: LSQLQTYMIQFDQYI
Consider B2, for which the IC50 with HLA-DP DPB1*02:01 was found to be 576 nM; with HLA-DP DPB1*04:01 it was 951 nM.

B3: ApoB100 peptide 3563.0003 (peptide)
peptide: QELLDIANYLMEQIQ
The molecule B3 registered an IC50 with HLA-DRB3*01:01 of 88 nM.

B4: ApoB100 peptide 3563.0006 (peptide)
peptide: FLHYIFMENAFELPT
As to B4, the IC50 with HLA-DP DPB1*02:01 came to 40 nM; with HLA-DP DPB1*04:01, 32 nM.

B5: ApoB100 peptide 3563.0017 (peptide)
peptide: LEVLNFDFQANAQLS
notes: agrees with the claims
Regarding B5, the IC50 was 86 nM in the test with HLA-DP DPB1*02:01 and 191 nM with HLA-DP DPB1*04:01.

B6: ApoB100 peptide 3563.0003 (peptide)
peptide: QELLDIANYLMEQIQ
As to B6, the IC50 with HLA-DP DPB1*02:01 stood at 1780 nM; with HLA-DP DPB1*04:01 it was 2580 nM.

B7: ApoB100 peptide 3563.0023 (peptide)
peptide: ILFSYFQDLVITLPF
In the test with HLA-DRB3*01:01, B7 had an IC50 of 71 nM.

B8: ApoB100 peptide 3563.001 (peptide)
peptide: PALLALLALPALLLL
notes: label printed as 3563.001
Regarding B8, the IC50 with HLA-DP DPB1*04:01 was 14000 nM.

B9: ApoB100 peptide 3563.0018 (peptide)
peptide: SLFFSAQPFEITAST
notes: also called p18
With B9, the IC50 in the test with HLA-DP DPB1*14:01 was found to be 126 nM; in the test with HLA-DP DPB1*02:01, 11 nM; with HLA-DP DPB1*05:01, 1480 nM; in the test with HLA-DQ DQB1*06:02, 895 nM.

B10: ApoB100 peptide 3563.0012 (peptide)
peptide: LSQLQTYMIQFDQYI
B10: the IC50 was 14 nM with HLA-DRB1*07:01; 425 nM in the test with HLA-DRB1*09:01; 826 nM with HLA-DRB5*01:01; 20500 nM in the test with HLA-DRB1*03:01; 35 nM with HLA-DRB1*13:02; 3360 nM in the test with HLA-DRB1*12:01. In addition, the IC50 in the test with HLA-DRB3*02:02 was 4660 nM; in the test with HLA-DRB1*04:01, 19 nM; in the test with HLA-DRB1*01:01, 157 nM; with HLA-DRB1*04:05, 69 nM; in the test with HLA-DRB4*01:01, 29 nM; with HLA-DRB3*01:01, 1110 nM. In the test with HLA-DRB1*15:01, this molecule gave an IC50 of 1.1 nM.

B11: ApoB100 peptide 3563.0030 (peptide)
peptide: FLIYITELLKKLQST
In the case of B11, the IC50 is 96 nM with HLA-DP DPB1*02:01 and 215 nM with HLA-DP DPB1*04:01.

B12: ApoB100 peptide 3563.0004 (peptide)
peptide: DKRLAAYLMLMRSPS
B12: the IC50 in the test with HLA-DP DPB1*02:01 came out at 1680 nM; in the test with HLA-DP DPB1*04:01, 372 nM.

B13: ApoB100 peptide 3563.0007 (peptide)
peptide: VEFVTNMGIIIPDFA
notes: agrees with the claims
On to B13, for which the IC50 in the test with HLA-DP DPB1*02:01 turned out to be 12 nM.

B14: ApoB100 peptide 3563.0020 (peptide)
peptide: RGLKLATALSLSNKF
Molecule B14 displayed an IC50 with HLA-DRB1*13:02 of 1.1 nM.

B15: ApoB100 peptide 3563.0028 (peptide)
peptide: KIVSLIKNLLVALKD
In the test with HLA-DRB5*01:01, B15 registered a 50% inhibitory concentration (IC50) of 14 nM.

B16: ApoB100 peptide 3563.0027 (peptide)
peptide: QIHQYIMALREEYFD
As to B16, the IC50 came to 80 nM with HLA-DP DPB1*02:01 and 817 nM with HLA-DP DPB1*04:01.

B17: ApoB100 peptide 3563.0014 (peptide)
peptide: HVKHFVINLIGDFEV
B17: the IC50 with HLA-DP DPB1*02:01 worked out at 58 nM; with HLA-DP DPB1*04:01, 7 nM.

B18: ApoB100 peptide 3563.0009 (peptide)
peptide: IKHIYAISSAALSAS
notes: also called p9; P9
On to B18, for which the IC50 turned out to be 77 nM with HLA-DRB1*07:01, 3.4 nM with HLA-DRB3*02:02 and 1.1 nM with HLA-DRB1*15:01.

B19: ApoB100 peptide 3563.0005 (peptide)
peptide: TLTAFGFASADLIEI
Molecule B19 gave an IC50 in the test with HLA-DP DPB1*04:01 of 490 nM.

B20: ApoB100 peptide 3563.0028 (peptide)
peptide: KIVSLIKNLLVALKD
On to B20, for which the IC50 with HLA-DP DPB1*02:01 stood at 657 nM; with HLA-DP DPB1*04:01 it was 78 nM.

B21: ApoB100 peptide 3563.0022 (peptide)
peptide: YKKLRTSSFALNLPT
Take B21: the half-inhibitory concentration (IC50) was determined as 3.3 nM in the test with HLA-DP DPB1*02:01 and 2.1 nM in the test with HLA-DP DPB1*04:01.

B22: ApoB100 peptide 3563.0024 (peptide)
peptide: QEVFKAIQSLKTTEV
For B22, the values for the IC50 with HLA-DP DPB1*02:01 and with HLA-DP DPB1*04:01 were 200 nM and 16 nM, respectively.

B23: ApoB100 peptide 3563.0016 (peptide)
peptide: GKLYSILKIQSPLFT
For B23, the values for the IC50 with HLA-DP DPB1*02:01 and in the test with HLA-DP DPB1*04:01 were 9070 nM and 2100 nM, respectively.

B24: ApoB100 peptide 3563.0015 (peptide)
peptide: LIINWLQEALSSASL
notes: agrees with the claims
Consider B24, for which the values for the 50% inhibitory concentration (IC50) in the test with HLA-DP DPB1*02:01 and in the test with HLA-DP DPB1*04:01 were 16300 nM and 6190 nM, respectively.

B25: ApoB100 peptide 3563.0005 (peptide)
peptide: TLTAFGFASADLIEI
Regarding B25, the IC50 in the test with HLA-DRB1*07:01 was found to be 33 nM; in the test with HLA-DRB1*09:01, 28 nM; with HLA-DRB5*01:01 it was 276 nM; in the test with HLA-DRB1*03:01, 16400 nM; in the test with HLA-DRB1*13:02, 6.1 nM; with HLA-DRB1*12:01, 27200 nM. Moreover, the IC50 with HLA-DRB3*02:02 worked out at 18100 nM; with HLA-DRB1*01:01 it was 60 nM; in the test with HLA-DRB3*01:01, 99 nM; in the test with HLA-DRB1*15:01 it was 25 nM.

B26: ApoB100 peptide 3563.0029 (peptide)
peptide: IDLSIQNYHTFLIYI
Take B26: the concentration for half-maximal inhibition (IC50) worked out at 23200 nM with HLA-DP DPB1*02:01 and 25000 nM in the test with HLA-DP DPB1*04:01.

B27: ApoB100 peptide 3563.0015 (peptide)
peptide: LIINWLQEALSSASL
As to B27, the IC50 in the test with HLA-DRB1*13:02 and with HLA-DRB4*01:01 was 12 nM each time.

B28: ApoB100 peptide 3563.0008 (peptide)
peptide: VGSKLIVAMSSWLQK
With B28, the IC50 in the test with HLA-DRB5*01:01 worked out at 23 nM.

B29: ApoB100 peptide 3563.0021 (peptide)
peptide: EGHLRFLKNIILPVY
As for B29, the IC50 with HLA-DP DPB1*02:01 stood at 61 nM.

B30: ApoB100 peptide 3563.0008 (peptide)
peptide: VGSKLIVAMSSWLQK
notes: agrees with the claims
For the molecule B30, the concentration for half-maximal inhibition (IC50) is 128 nM with HLA-DP DPB1*02:01 and 89 nM with HLA-DP DPB1*04:01.
